Experiment [1] has as its target SNX27 PDZ (amino acids 740–141) (human, UniProt Q96L92 43-136). The experiment can be described thus: fluorescence polarisation. Particulars: both partners purified.
The target of experiment [2] is T1, MPP5 PDZ (amino acids 238–336) (human, UniProt Q8N3R9 238-336).
T1 sequence (looked up): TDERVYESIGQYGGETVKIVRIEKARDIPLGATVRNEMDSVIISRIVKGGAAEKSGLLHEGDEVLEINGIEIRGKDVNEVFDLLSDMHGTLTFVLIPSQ
Nature of the experiment: fluorescence polarisation. Particulars: both partners purified. (Polarisation of emitted light reports the rotation of a fluorescent probe.)

No end group written: not given here. A value given as a limit tells only on which side of the number the result lay.

B1: FITC-labeled peptide of the C-terminus of SARS-CoV-2 ORF3a (ORF3A 266-275) (peptide)
peptide: EPTTTTSVPL
modifications: also: FITC-labeled
One may read the Kd as a measure of binding affinity in units of concentration. Low readings indicate tighter binding, high ones weaker binding. As for B1, in experiment [1], the Kd was above 400 µM.

B2: FITC-labeled peptide of the C-terminus of the SARS-CoV-2 E protein (E66-77) (peptide)
peptide: NSSRVPDLLV
modifications: also: FITC-labeled
notes: also called peptide from the E protein
As for B2, the Kd in experiment [2] is 400 ± 55 µM; in experiment [1] it was above 400 µM.

Source of the values: PMC9610207 (Viruses, 2022).
